Results on 13 molecules are retold here after US20260347496 (published 2026).

Read-outs that look alike come from different tables or passages of the source.

The target in test [1] is CD24(27-56aa)-GST NEOX-4 (human). Description: ELISA. For orientation: An ELISA detects its analyte on a solid surface through an enzyme-linked reagent.
Test [2] shares this target. Description: ELISA. The source holds these as a separate data set.

Sequence of CD24(27-56aa)-GST NEOX-4 (human) (chain, as listed by the source): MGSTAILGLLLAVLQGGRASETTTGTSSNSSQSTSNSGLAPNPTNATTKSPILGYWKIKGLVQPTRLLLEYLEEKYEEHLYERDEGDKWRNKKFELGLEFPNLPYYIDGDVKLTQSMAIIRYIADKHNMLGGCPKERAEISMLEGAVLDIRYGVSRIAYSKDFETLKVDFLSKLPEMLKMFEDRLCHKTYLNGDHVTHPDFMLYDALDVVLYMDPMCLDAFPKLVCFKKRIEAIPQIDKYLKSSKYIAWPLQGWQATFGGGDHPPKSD

B1: huG14-105 (antibody, V domains shown)
VH: EVQLVESGGGLVKPGGSLRLSCAASGLTFSNYWMNWVRQAPGKGLEWVALIRLYSDNYAIHYAESVKGRFTISRDDSKSTVYLQMNSLKTEDTAVYYCTTGTDYWGQGTTVTVSS
VL: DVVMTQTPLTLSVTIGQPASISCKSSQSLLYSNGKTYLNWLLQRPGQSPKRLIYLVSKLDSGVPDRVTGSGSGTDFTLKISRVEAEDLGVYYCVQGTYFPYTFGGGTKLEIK
By EC50 is commonly meant the concentration giving half of the maximal effect. Read a high EC50 as a need for much substance. For B1, the midpoint of the response with CD24(27-56aa)-GST NEOX-4 [1], the EC50, lay at 0.0206 µg/mL.

B2: huG14-135 (antibody, V domains shown)
VH: EVQLVESGGGLVKPGGSLRLSCAASGLTFSNYWGNWVRQAPGKGLEWVALIRLYSDNYAIHYAESVKGRFTISRDDSKSTVYLQMNSLKTEDTAVYYCTTGTDNWGQGTTVTVSS
VL: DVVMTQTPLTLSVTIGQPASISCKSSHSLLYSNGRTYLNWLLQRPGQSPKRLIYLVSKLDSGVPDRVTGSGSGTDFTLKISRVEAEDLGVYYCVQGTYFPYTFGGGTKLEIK
Turning to B2, in the test with CD24(27-56aa)-GST NEOX-4 [2], the response was half-maximal at 3.87 ng/mL (EC50).

B3: huG14-102 (antibody, V domains shown)
VH: EVQLVESGGGLVKPGGSLRLSCAASGLTFSNYWMNWVRQAPGKGLEWVALIRLYSDNYAIHYAESVKGRFTISRDDSKSTVYLQMNSLKTEDTAVYYCTTGTDYWGQGTTVTVSS
VL: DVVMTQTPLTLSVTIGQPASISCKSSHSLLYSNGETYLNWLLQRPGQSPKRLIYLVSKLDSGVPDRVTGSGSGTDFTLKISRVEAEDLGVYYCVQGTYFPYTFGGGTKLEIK
As for B3, the midpoint of the response with CD24(27-56aa)-GST NEOX-4 [1], the EC50, lay at 0.00961 µg/mL.

B4: huG14-134 (antibody, V domains shown)
VH: EVQLVESGGGLVKPGGSLRLSCAASGLTFSNYWGNWVRQAPGKGLEWVALIRLYSDNYAIHYAESVKGRFTISRDDSKSTVYLQMNSLKTEDTAVYYCTTGTDNWGQGTTVTVSS
VL: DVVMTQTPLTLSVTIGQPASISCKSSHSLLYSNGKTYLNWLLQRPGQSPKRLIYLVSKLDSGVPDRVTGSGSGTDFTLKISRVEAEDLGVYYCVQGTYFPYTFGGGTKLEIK
For the molecule B4, the EC50 in the test with CD24(27-56aa)-GST NEOX-4 [2] worked out at 3.83 ng/mL.

B5: huG14-106 (antibody, V domains shown)
VH: EVQLVESGGGLVKPGGSLRLSCAASGLTFSNYWMNWVRQAPGKGLEWVALIRLYSDNYAIHYAESVKGRFTISRDDSKSTVYLQMNSLKTEDTAVYYCTTGTDYWGQGTTVTVSS
VL: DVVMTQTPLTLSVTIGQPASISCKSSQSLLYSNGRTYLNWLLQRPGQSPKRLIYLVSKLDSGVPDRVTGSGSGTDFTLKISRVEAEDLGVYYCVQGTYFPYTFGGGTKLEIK
For the molecule B5, the EC50 with CD24(27-56aa)-GST NEOX-4 [1] worked out at 0.0157 µg/mL.

B6: huG14-130 (antibody, V domains shown)
VH: EVQLVESGGGLVKPGGSLRLSCAASGLTFSNYWMNWVRQAPGKGLEWVALIRLYSDNYAIHYAESVKGRFTISRDDSKSTVYLQMNSLKTEDTAVYYCTTGTDNWGQGTTVTVSS
VL: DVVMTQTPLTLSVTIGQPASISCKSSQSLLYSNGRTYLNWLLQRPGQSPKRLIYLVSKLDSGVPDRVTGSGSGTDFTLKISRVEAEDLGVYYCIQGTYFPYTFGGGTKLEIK
B6: in the test with CD24(27-56aa)-GST NEOX-4 [2], it took 3.89 ng/mL to reach a half-maximal effect (EC50).

B7: huG14-101 (antibody, V domains shown)
VH: EVQLVESGGGLVKPGGSLRLSCAASGLTFSNYWMNWVRQAPGKGLEWVALIRLYSDNYAIHYAESVKGRFTISRDDSKSTVYLQMNSLKTEDTAVYYCTTGTDYWGQGTTVTVSS
VL: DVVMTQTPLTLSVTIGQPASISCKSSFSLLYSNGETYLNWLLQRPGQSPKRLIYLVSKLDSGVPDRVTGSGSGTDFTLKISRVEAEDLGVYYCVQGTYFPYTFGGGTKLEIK
In the test with CD24(27-56aa)-GST NEOX-4 [1], B7 yielded an EC50 of 0.0325 µg/mL.

B8: huG14-104 (antibody, V domains shown)
VH: EVQLVESGGGLVKPGGSLRLSCAASGLTFSNYWMNWVRQAPGKGLEWVALIRLYSDNYAIHYAESVKGRFTISRDDSKSTVYLQMNSLKTEDTAVYYCTTGTDYWGQGTTVTVSS
VL: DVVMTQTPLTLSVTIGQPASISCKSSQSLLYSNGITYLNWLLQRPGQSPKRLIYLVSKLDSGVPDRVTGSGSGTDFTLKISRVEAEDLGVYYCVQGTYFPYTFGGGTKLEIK
B8 yielded an EC50 with CD24(27-56aa)-GST NEOX-4 [1] of 0.0183 µg/mL.

B9: huG14-111 (antibody, V domains shown)
VH: EVQLVESGGGLVKPGGSLRLSCAASGLTFSNYWMNWVRQAPGKGLEWVALIRLYSDNYAIHYAESVKGRFTISRDDSKSTVYLQMNSLKTEDTAVYYCTTGTDFWGQGTTVTVSS
VL: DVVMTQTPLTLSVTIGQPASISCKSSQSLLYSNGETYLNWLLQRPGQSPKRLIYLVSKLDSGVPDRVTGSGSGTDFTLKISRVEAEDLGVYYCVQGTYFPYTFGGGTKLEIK
As to B9, in the test with CD24(27-56aa)-GST NEOX-4 [1], the EC50 was found to be 0.0293 µg/mL.

B10: huG14-103 (antibody, V domains shown)
VH: EVQLVESGGGLVKPGGSLRLSCAASGLTFSNYWMNWVRQAPGKGLEWVALIRLYSDNYAIHYAESVKGRFTISRDDSKSTVYLQMNSLKTEDTAVYYCTTGTDYWGQGTTVTVSS
VL: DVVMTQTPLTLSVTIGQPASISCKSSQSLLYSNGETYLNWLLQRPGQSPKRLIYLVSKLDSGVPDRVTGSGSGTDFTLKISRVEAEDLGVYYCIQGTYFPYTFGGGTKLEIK
For B10, the 50% effective concentration (EC50) in the test with CD24(27-56aa)-GST NEOX-4 [1] amounted to 0.00813 µg/mL.

B11: huG14-110 (antibody, V domains shown)
VH: EVQLVESGGGLVKPGGSLRLSCAASGLTFSNYWMNWVRQAPGKGLEWVALIRLYSDNYAIHYAESVKGRFTISRDDSKSTVYLQMNSLKTEDTAVYYCTTGTDNWGQGTTVTVSS
VL: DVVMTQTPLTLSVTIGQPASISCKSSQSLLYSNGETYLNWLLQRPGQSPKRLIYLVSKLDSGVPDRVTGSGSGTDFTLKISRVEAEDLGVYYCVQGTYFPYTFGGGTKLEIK
With B11, the EC50 with CD24(27-56aa)-GST NEOX-4 [1] amounted to 0.0153 µg/mL.

B12: huG14-109 (antibody, V domains shown)
VH: EVQLVESGGGLVKPGGSLRLSCAASGLTFSNYWGNWVRQAPGKGLEWVALIRLYSDNYAIHYAESVKGRFTISRDDSKSTVYLQMNSLKTEDTAVYYCTTGTDYWGQGTTVTVSS
VL: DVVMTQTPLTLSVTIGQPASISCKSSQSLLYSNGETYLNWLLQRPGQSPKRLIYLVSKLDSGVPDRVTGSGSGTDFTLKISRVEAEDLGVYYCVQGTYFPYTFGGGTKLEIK
Molecule B12 yielded a half-maximal effective concentration (EC50) with CD24(27-56aa)-GST NEOX-4 [1] of 0.0109 µg/mL.

B13: huG14-107 (antibody, V domains shown)
VH: EVQLVESGGGLVKPGGSLRLSCAASGLTFSNYWMNWVRQAPGKGLEWVALIRLYSDNYAIHYAESVKGRFTISRDDSKSTVYLQMNSLKTEDTAVYYCTTGTDYWGQGTTVTVSS
VL: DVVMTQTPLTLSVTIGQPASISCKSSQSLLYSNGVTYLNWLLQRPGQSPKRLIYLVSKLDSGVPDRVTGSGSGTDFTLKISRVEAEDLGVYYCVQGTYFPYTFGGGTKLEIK
B13 registered an EC50 with CD24(27-56aa)-GST NEOX-4 [1] of 0.0494 µg/mL.
